These results are taken from patent publication US20070020258A1 (published 2007).

The target in experiment [1] is T1, human IgE (ND and PS allotypes) (human, UniProt P01854-1 1-428, tracer iodinated with 125I (chloramine T)).
T1 construct: IgE used for the Scatchard Kd; also called 125I IgE; unlabelled IgE
The experiment is described as follows: 125I-IgE equilibrium binding, Scatchard. The protocol: e. Scatchard analysis was performed utilizing a Fortran program (scanplot) based on the Ligand program written by P. Munson at NIH. Scatplot uses a mass action equation fitting bound as a function of total using the Rodbard type regression analysis.

The target of experiment [2] is T2, human IgE purified from U266B1 cells (human, UniProt P01854-1 1-428).
T2 construct: domain: Fcε4; Whole IgE; its X residues are spacers that keep Kabat numbering and are not part of the protein; also called U266 IgE; U266 IgE standard
T2 sequence (P01854 other isoform, or with tags, fused parts or gaps): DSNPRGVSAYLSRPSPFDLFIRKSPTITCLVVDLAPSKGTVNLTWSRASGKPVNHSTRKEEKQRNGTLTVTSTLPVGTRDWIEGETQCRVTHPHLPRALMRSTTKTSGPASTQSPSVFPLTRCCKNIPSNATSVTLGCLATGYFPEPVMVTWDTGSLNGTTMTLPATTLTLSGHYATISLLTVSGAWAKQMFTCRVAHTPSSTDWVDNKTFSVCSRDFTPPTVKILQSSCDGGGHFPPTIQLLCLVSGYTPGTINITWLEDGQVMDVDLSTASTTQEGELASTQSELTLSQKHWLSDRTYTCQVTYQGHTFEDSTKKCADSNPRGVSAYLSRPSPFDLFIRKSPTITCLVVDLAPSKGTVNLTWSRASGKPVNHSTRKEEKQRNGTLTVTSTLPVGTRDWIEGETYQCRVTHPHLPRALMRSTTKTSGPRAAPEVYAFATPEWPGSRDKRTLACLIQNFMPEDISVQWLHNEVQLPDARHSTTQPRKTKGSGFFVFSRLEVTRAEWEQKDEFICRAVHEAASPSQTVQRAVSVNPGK
As to the kind of experiment: IgE/FcεRI inhibition ELISA. As for the experimental part:
A 96-well assay plate (Manufn Nunc.) was coated with 0.05 ml of the FcεRI alpha chain IgG1 chimeric receptor in 1 μg/ml coating buffer ([…] carbonate/bicarbonate, pH 9.6). Assay was done for 12 hours at 4-8° C. The wells were aspirated and 250 μl blocking buffer (PBS-1% BSA pH 7.2) was added and incubated for one hour at 4° C. […] The FcεRI-coated wells were washed three times with PBS-0.05% Tween20, and then 50 μl from the sample wells were transferred and incubated with agitation for 30 minutes at 25° C. 50 μl/well of streptavidin-HRP diluted 1:5000 in assay buffer was incubated for 15 minutes with agitation and then the plate was washed as before. 50 μl/well of Microwell peroxidase substrate (Kirkgaard & Parry Laboratories) was added and color was developed for 30 minutes.

T1 sequence (P01854 other isoform, or with tags, fused parts or gaps): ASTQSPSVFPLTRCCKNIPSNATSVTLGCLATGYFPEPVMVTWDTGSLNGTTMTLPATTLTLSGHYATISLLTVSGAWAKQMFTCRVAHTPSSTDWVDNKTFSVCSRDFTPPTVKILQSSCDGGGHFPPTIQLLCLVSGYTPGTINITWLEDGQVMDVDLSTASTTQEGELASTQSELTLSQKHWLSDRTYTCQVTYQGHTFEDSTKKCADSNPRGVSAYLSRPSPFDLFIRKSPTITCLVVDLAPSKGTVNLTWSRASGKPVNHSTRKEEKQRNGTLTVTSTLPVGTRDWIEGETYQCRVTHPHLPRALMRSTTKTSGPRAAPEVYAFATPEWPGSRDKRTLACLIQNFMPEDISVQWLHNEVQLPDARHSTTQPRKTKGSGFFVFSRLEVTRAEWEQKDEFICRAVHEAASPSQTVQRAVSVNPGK

B1: MAE15 (antibody, V domains shown)
VH: DVQHQESEPDLVKPSQSLSLTCTVTGYSITSGYNRHWIRQFPGNKLEWMGYIHYSGSTNYNPSLKRRISITRDTSKNQFFLQLNSVTTEDTATYYCARGSIYYYGSRYRYFDVWGAGTTVTVSS
VL: DIQLTQSPASLAVSLGQRATISCKASQSVDYDGDSYMNWYQQKPGQPPKLLIYAASNLESGIPARFSGSGSGTDFTLNIHPVEEEDAATYYCQQSNEDPFTFGAGT
notes: murine IgG1
In experiment [1], B1 registered a Kd of 70 nM.

B2: MAE11 (antibody, V domains shown)
VH: DVQLQESGPGLVKPSQSLSLACSVTGYSITSGYSWNWIRQFPGNKLEWMGSITYDGSSNYNPSLKNRISVTRDTSQNQFFLKLNSATAEDTATYYCARGSHYFGHWHFAVWGAGTTVTVSS
VL: DIVLTQSPASLAVSLGQRATISCKASQSVDYDGDSYMNWYQQKPGQPPILLIYAASYLGSEIPARFSGSGSGTDFTLNIHPVEEEDAATFYCQQSHEDPYTFGAGTKLEIK
notes: murine IgG1
Regarding B2, the Kd in experiment [1] was found to be 30 nM. Besides, in experiment [2], the “ratio Var. X / IgL1H1” value came to 0.06 and the “ratio Var. X / MaE11” value is 1.

B3: MAE13 (antibody, V domains shown)
VH: DVQLQESGPGLVKPSQSLSLTCTVTGYTITSDNAWNWIRQFPGNKLEWMGYINHSGTTSYNPSLKSRISITRDTSKNQFFLQLNSVTTEDTATYYCAWVVAYAMDYWGQGTSVTVSS
VL: DIVMTQSQKFMSTSVGDRVSVTCKASQNVSSNVAWYQQKPGQSPKALIYSASYRYSGVPDRFTGSGSGTDFTLTISNVQSEDLAEYFCQQYYTYPLYTFGGGTKLEIKR
notes: murine IgG1
Consider B3, for which binding in experiment [1] was put at a Kd of 50 nM.
